1 molecule from patent publication US20190016799A1 (HANGZHOU SUMGEN BIOTECHNOLOGY, published 2019) can be followed below.

The target in assay [1] is T1, BTLA (UniProt Q7Z6A9 31-157, limits assumed).
T1 construct: Bought protein
Nature of the assay: ELISA, plate coated with BTLA 1 ug/ml, detection with GAH-Fab-HRP, OD450; antibody concentration not shown on the sheet.

The target in assay [2] is T2, hPD1-Fc (fusion protein of human PD-1 protein extracellular segment-human IgG1 Fc fragment) (human, UniProt Q15116 25-170).
T2 construct: extracellular domain; Expressed in CHO-K1 cells; also called hPD1-FC-Biotin (biotin-labeled form); not shown: human IgG1 Fc fragment
T2 sequence (Q15116 25-170): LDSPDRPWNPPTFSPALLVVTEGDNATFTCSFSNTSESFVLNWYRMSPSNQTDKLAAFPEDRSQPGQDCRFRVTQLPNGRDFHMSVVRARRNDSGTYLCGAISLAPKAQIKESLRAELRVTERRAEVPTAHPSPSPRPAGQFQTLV
The assay can be described thus: competition ELISA, plate coated with hPD1-FC 1 µg/mL, competitor BMS01-Biotin 0.5 µg/mL, detection with HRP-avidin, OD450. As to the method: (§1) The plate was washed 3 times with a washing solution repeatedly, added with HRP-labeled avidin, and placed in the dark at room temperature (20±5° C.) for 45 minutes. The plate was washed 5 times with a washing solution repeatedly, and patted on a drying paper to dry out the residual droplets as possible; added with 100 μl of TMB to each well, and placed in the dark for 3 min at room temperature (20±5° C.); 100 μl of 2N H₂SO₄ stop solution was added to each well to stop the substrate reaction, and the microplate reader was read at 450 nm for the OD value.

The target of assay [3] is T3, CTLA4 (UniProt P16410 36-162).
T3 construct: Bought protein
T3 sequence (P16410 36-162 limits assumed): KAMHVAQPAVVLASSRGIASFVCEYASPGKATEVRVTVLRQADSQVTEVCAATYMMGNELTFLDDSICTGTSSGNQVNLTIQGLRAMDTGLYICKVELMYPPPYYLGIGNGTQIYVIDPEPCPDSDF
Nature of the assay: ELISA, plate coated with CTLA4 1 ug/ml, detection with GAH-Fab-HRP, OD450; antibody concentration not shown on the sheet. In general terms: In an ELISA, binding on a coated surface is turned into a signal by an enzyme label.

The target of assay [4] is T2, hPD1-Fc (fusion protein of human PD-1 …). The assay can be described thus: ELISA, plate coated with hPD1-Fc 1 ug/ml, detection with GAH-Fab-HRP, OD450.
Assay [5] has the same target. Nature of the assay: blocking ELISA: hPDL1 coated at 1 ug/mL, hPD1-FC-Biotin 5 ug/mL, antibody titrated from 500 ug/mL. As to the method: as §1
For assay [6] the target is unchanged. The assay can be described thus: SPR (BIACORE), antibody captured by anti-human IgG-Fab on the chip, hPD1-FC as mobile phase at 3.125-100 nM; the text's value is tenfold above Table 1. As to the method: (§2) The antibody affinity was analyzed using BIACORE Biomacromolecular Interaction Device (GE).
On the technique in general: In SPR one partner is held on a chip, and binding of the other changes the refractive index at the surface.

In assay [7] the target is T4, monkey PD1 (monkey).
T4 construct: Bought protein; also called monkey PD1 protein; monkey PD1 antigen
The assay can be described thus: ELISA, plate coated with monkey PD1 1 ug/ml, detection with GAH-Fab-HRP, OD450.

Assay [8] has as its target T2, hPD1-Fc (fusion protein of human PD-1 …). The assay can be described thus: ELISA, plate coated with hPD1-Fc 1 ug/ml, detection with GAH-Fab-HRP, OD450. This is another data set of the same source.
For assay [9], the target named is T5, ICOS (UniProt Q9Y6W8 21-140, limits assumed).
T5 construct: Bought protein
T5 sequence (looked up): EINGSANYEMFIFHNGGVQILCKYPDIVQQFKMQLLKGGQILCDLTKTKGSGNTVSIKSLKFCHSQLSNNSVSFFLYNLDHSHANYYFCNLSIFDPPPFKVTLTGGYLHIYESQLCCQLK
The assay can be described thus: ELISA, plate coated with ICOS 1 ug/ml, detection with GAH-Fab-HRP, OD450; antibody concentration not shown on the sheet.

The target in assay [10] is T2, hPD1-Fc (fusion protein of human PD-1 …). The assay can be described thus: SPR (BIACORE), antibody captured by anti-human IgG-Fab, hPD1-FC as analyte at 3.125-100 nM. As to the method:
as §2

For assay [11], the target named is T6, CD28 (UniProt P10747 19-152).
T6 construct: Bought protein
The assay can be described thus: ELISA, plate coated with CD28 1 ug/ml, detection with GAH-Fab-HRP, OD450; antibody concentration not shown on the sheet.

Like-named read-outs stand apart in the source and are kept apart here.

B1: SG001 antibody (antibody, human IgG1, kappa, V domains shown)
VH: QVQLVESGGGVVQPGRSLRLTCKASGLTFSSSGMHWVRQAPGKGLEWVAVIWYDGSKRYYADSVKGRFTISRDNSKNTLFLQMNSLRAEDTAVYYCATNNDYWGQGTLVTVSS
VL: EIVLTQSPATLSLSPGERATLSCRASQSVSSYLAWYQQKPGQAPRLLIYTASNRATGIPARFSGSGSGTDFTLTISSLEPEDFAVYYCQQYSNWPRTFGQGTKVEIKR
On to B1, for which the binding result in [1], in assay [3], in assay [9] and in assay [11] was “no binding” each time. Besides, the “IC50 (read off the curve)” value in assay [2] is ~30 µg/mL. The “EC50 (read off the curve)” value in [4] is ~0.05 µg/mL; in assay [7], ~0.03 µg/mL; in assay [8], ~0.03 µg/mL. The molecule further had an IC50 in assay [5] of 1.47 µg/mL. The Kd in [6] and in assay [10] was 215 pM each time. Besides, the koff in assay [10] turned out to be 6.85e-05 s⁻¹. This molecule also gave a kon in assay [10] of 318000 M⁻¹ s⁻¹.

Broadly, the EC50 (read off the curve) is the concentration needed to bring the measured effect to its halfway point. Broadly, the IC50 is the concentration that inhibits the measured activity by half. Broadly, the Kd is the concentration at which binding is half-saturated. The koff is the rate constant with which the complex falls apart. Usually kon stands for the rate constant with which the complex forms.
